Data as given in PMC2756588.

Legend:
Test in all cases: SPOT array
Abp1, P15891 = biological target: T1, Abp1, P15891; conditions: median of control spots 935
T1 sequence (P15891 535-592, looked up): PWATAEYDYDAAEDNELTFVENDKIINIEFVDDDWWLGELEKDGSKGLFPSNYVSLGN

Bbc1, P47068 = biological target: T2, Bbc1, P47068; conditions: median of control spots 796
T2 sequence (P47068 1-78, looked up): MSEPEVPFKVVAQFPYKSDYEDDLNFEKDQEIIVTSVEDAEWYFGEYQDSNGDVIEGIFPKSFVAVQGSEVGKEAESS

Bem1-1, P29366 = conditions: median of control spots 4282
Bem1-1, P29366, sequence (P29366 55-141): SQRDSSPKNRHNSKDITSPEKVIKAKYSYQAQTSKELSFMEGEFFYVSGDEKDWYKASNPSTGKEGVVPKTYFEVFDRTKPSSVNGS

Bem1-2, P29366 = conditions: median of control spots 4347
Bem1-2, P29366, sequence (P29366 139-227): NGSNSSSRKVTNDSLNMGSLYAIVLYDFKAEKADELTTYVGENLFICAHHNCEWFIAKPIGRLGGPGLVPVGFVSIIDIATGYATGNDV

Boi1, P38041 = biological target: T3, Boi1, P38041; conditions: median of control spots 1162
T3 sequence (P38041 1-86, looked up): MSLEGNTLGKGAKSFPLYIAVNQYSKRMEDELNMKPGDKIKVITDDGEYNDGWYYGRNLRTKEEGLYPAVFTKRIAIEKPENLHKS

Boi2, P39969 = biological target: T4, Boi2, P39969; conditions: median of control spots 1161
T4 sequence (P39969 32-116, looked up): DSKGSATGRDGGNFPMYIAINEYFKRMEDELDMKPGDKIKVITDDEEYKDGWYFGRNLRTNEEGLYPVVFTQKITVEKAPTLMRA

Bud14, P27637 = biological target: T5, Bud14, P27637; conditions: median of control spots 956
T5 sequence (P27637 247-328, looked up): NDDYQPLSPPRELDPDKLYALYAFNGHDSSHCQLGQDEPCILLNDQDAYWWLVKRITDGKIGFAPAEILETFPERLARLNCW

Bzz1-1, P38822 = biological target: T6, Bzz1-1, P38822; conditions: median of control spots 4446
T6 sequence (P38822 478-572, looked up): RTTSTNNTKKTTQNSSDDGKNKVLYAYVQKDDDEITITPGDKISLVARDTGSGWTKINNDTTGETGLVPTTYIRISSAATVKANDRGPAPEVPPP

Bzz1-2, P38822 = biological target: T7, Bzz1-2, P38822; conditions: median of control spots 4538
T7 sequence (P38822 568-633, looked up): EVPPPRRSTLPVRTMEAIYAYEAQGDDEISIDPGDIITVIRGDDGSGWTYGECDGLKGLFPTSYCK

Cdc25, P04821 = biological target: T8, Cdc25, P04821; conditions: median of control spots 969
T8 sequence (P04821 50-136, looked up): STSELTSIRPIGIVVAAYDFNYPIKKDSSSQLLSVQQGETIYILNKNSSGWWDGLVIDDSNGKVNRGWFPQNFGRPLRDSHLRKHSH

Cyk3, Q07533 = biological target: T9, Cyk3, Q07533; conditions: median of control spots 1451
T9 sequence (Q07533 1-83, looked up): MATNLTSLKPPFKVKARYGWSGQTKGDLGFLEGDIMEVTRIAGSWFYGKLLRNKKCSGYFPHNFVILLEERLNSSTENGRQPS

Fus1, P11710 = biological target: T10, Fus1, P11710; conditions: median of control spots 1200
T10 sequence (P11710 432-512, looked up): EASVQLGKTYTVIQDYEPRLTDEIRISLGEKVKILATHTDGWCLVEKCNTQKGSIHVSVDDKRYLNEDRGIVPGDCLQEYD

GST = conditions: median of control spots 978
Hof1, Q05080 = biological target: T11, Hof1, Q05080; conditions: median of control spots 4086
T11 sequence (Q05080 590-669, looked up): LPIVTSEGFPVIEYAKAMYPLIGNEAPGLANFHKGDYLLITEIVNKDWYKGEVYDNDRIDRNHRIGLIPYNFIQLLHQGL

Hse1, P38753 = biological target: T12, Hse1, P38753; conditions: median of control spots 1727
T12 sequence (P38753 208-285, looked up): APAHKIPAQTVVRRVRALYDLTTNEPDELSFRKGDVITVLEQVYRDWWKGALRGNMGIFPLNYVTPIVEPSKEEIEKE

Lsb1, P53281 = biological target: T13, Lsb1, P53281; conditions: median of control spots 388
T13 sequence (P53281 45-122, looked up): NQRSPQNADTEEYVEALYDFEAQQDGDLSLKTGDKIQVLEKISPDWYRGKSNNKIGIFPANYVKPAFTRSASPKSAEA

Lsb3, P43603 = biological target: T14, Lsb3, P43603; conditions: median of control spots 406
T14 sequence (P43603 385-451, looked up): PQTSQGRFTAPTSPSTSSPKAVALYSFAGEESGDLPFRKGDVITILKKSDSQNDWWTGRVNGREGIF

Lsb4, P32793 = biological target: T15, Lsb4, P32793; conditions: median of control spots 397
T15 sequence (P32793 402-468, looked up): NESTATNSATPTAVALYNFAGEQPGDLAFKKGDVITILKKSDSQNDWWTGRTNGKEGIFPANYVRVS

Myo3, P36006 = conditions: median of control spots 468
Myo5, Q04439 = biological target: T16, Myo5, Q04439; conditions: median of control spots 471
T16 sequence (Q04439 1072-1160, looked up): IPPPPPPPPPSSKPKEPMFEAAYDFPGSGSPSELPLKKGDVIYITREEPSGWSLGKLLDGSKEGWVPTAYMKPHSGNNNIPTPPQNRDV

Nbp2, Q12163 = biological target: T17, Nbp2, Q12163; conditions: median of control spots 357
T17 sequence (Q12163 103-180, looked up): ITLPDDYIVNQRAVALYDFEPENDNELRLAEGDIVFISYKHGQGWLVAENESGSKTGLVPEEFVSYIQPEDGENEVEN

Pex13, P80667 = biological target: T18, Pex13, P80667; conditions: median of control spots 1341
T18 sequence (P80667 295-386, looked up): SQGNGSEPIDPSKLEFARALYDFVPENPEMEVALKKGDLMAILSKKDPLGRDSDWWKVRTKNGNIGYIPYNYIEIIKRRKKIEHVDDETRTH

Pin3, Q06449 = biological target: T19, Pin3, Q06449; conditions: median of control spots 2171
T19 sequence (Q06449 53-122, looked up): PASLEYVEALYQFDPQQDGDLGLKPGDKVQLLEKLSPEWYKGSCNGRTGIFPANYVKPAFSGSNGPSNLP

Rvs167, P39743 = conditions: median of control spots 2707
Rvs167, P39743, sequence (P39743 419-482): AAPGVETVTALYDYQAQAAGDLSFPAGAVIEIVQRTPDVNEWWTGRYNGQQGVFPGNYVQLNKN

Sho1, P40073 = conditions: median of control spots 1148
Sho1, P40073, sequence (P40073 287-367): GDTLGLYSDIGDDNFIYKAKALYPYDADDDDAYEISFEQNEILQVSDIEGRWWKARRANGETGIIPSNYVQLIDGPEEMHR

Sla1-2, P32790 = biological target: T20, Sla1-2, P32790; conditions: median of control spots 712
T20 sequence (P32790 60-140, looked up): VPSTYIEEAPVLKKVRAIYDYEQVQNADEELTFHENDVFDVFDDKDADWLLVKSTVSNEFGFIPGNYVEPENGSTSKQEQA

Sla1-3, P32790 = biological target: T21, Sla1-3, P32790; conditions: median of control spots 5475
T21 sequence (P32790 344-424, looked up): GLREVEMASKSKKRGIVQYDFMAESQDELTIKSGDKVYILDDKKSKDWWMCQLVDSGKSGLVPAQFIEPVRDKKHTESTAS

Binder | SPOT intensity (Abp1, P15891) | SPOT intensity (Bbc1, P47068) | SPOT intensity (Bem1-1, P29366) | SPOT intensity (Bem1-2, P29366) | SPOT intensity (Boi1, P38041) | SPOT intensity (Boi2, P39969) | SPOT intensity (Bud14, P27637) | SPOT intensity (Bzz1-1, P38822) | SPOT intensity (Bzz1-2, P38822) | SPOT intensity (Cdc25, P04821) | SPOT intensity (Cyk3, Q07533) | SPOT intensity (Fus1, P11710) | SPOT intensity (GST) | SPOT intensity (Hof1, Q05080) | SPOT intensity (Hse1, P38753) | SPOT intensity (Lsb1, P53281) | SPOT intensity (Lsb3, P43603) | SPOT intensity (Lsb4, P32793) | SPOT intensity (Myo3, P36006) | SPOT intensity (Myo5, Q04439) | other results
TPTSGPPLLPPRNTM | 25 | 0 | 0 | 0 | 2 | 0 | 0 | 0 | 0 | 0 | 1 | 1 | 0 | 3 | 4 | 456 | 345 | 356 | 97 | 45 | SPOT intensity (Nbp2, Q12163): 0; SPOT intensity (Pex13, P80667): 813; SPOT intensity (Pin3, Q06449): 66; SPOT intensity (Rvs167, P39743): 2940; SPOT intensity (Sho1, P40073): 21; SPOT intensity (Sla1-2, P32790): 1; SPOT intensity (Sla1-3, P32790): 0
MAMRPIPPLPTESEY | 6 | 0 | 0 | 0 | 0 | 1 | 0 | 0 | 2 | 0 | 0 | 0 | 0 | 1560 | 0 | 174 | 131 | 278 | 7 | 27 | SPOT intensity (Nbp2, Q12163): 0; SPOT intensity (Pex13, P80667): 235; SPOT intensity (Pin3, Q06449): 4; SPOT intensity (Rvs167, P39743): 1460; SPOT intensity (Sho1, P40073): 30; SPOT intensity (Sla1-2, P32790): 0; SPOT intensity (Sla1-3, P32790): 0
VAPPPLPNRQLPNLD | 0 | 0 | 2 | 0 | 0 | 0 | 0 | 2 | 0 | 0 | 2 | 0 | 0 | 1330 | 0 | 1380 | 743 | 813 | 112 | 59 | SPOT intensity (Nbp2, Q12163): 0; SPOT intensity (Pex13, P80667): 563; SPOT intensity (Pin3, Q06449): 5; SPOT intensity (Rvs167, P39743): 5720; SPOT intensity (Sho1, P40073): 0; SPOT intensity (Sla1-2, P32790): 0; SPOT intensity (Sla1-3, P32790): 0
ANNQGPPNLPARDKS | 0 | 0 | 0 | 0 | 4 | 0 | 0 | 2 | 0 | 0 | 0 | 0 | 1 | 0 | 0 | 461 | 478 | 642 | 0 | 0 | SPOT intensity (Nbp2, Q12163): 0; SPOT intensity (Pex13, P80667): 229; SPOT intensity (Pin3, Q06449): 0; SPOT intensity (Rvs167, P39743): 3320; SPOT intensity (Sho1, P40073): 0; SPOT intensity (Sla1-2, P32790): 1; SPOT intensity (Sla1-3, P32790): 0
